From PMC6957486

Assays:
[1] = target: photosystem I (PSI) core from H. hongdechloris grown under far-red light, one monomer of the trimer (Halomicronema hongdechloris); test: cryo-EM structure; single particle analysis of PSI trimers purified whole from thylakoid membranes; 50 mM MES (pH 6.0), 5 mM CaCl2, 0.2-2.0% sucrose, 0.01% β-DDM; grids washed without sucrose and β-DDM; 2.35 Å (white PSI) and 2.41 Å (far-red PSI)
[2] = target: photosystem I (PSI) core from H. hongdechloris grown under white light, one monomer of the trimer (Halomicronema hongdechloris); test: as above

| stoichiometry N [1] | stoichiometry N [2] | Substance |
| --- | --- | --- |
| 3 |  | photosystem I (PSI) core from H. hongdechloris grown under far-red light, one monomer of the trimer (from UniProt A0A1Z3HPE3 1-81; A0A1Z3HHI7 1-142; A0A1Z3HI16 1-68; A0A1Z3HR36 1-96) (complex) |
|  | 3 | photosystem I (PSI) core from H. hongdechloris grown under white light, one monomer of the trimer (from UniProt A0A1Z3HPE3 1-81; A0A1Z3HHI7 1-142; A0A1Z3HI16 1-68) (complex) |
